Measured values from PMC4500099.

Molecular target: Mercuric ion reductase (MerA) from Metallosphaera sedula (Metallosphaera sedula)
Test: crystal structure; hanging drop; 0.085M TRIS (pH 8.5), 15% v/v glycerol, 14% w/v PEG400, 0.19M LiSO4, 20 mg/mL protein; data collected at 100 K; bound FAD; space group P22(1)2(1), two monomers per asymmetric unit

stoichiometry N: 2
Substance: Mercuric ion reductase (MerA) from Metallosphaera sedula (enzyme)
